Results from patent publication US20230076357A1.

How the values were obtained:
Assay in all cases: cell-based or functional assay
[1] = target: nCas9-LZ1 (NLS-SpCas9(H840A)-NLS-EE12RR345L(leucine zipper)) (Streptococcus pyogenes serotype M1) (UniProt Q99ZW2)
[2] = target: nCas9(1-1172)-Npu N intein (Streptococcus pyogenes serotype M1) (UniProt Q99ZW2)
[3] = target: constitutively active SAMHD1 (SAMHD1 (T592A)) (UniProt Q9Y3Z3)
constitutively active SAMHD1 (SAMHD1 (T592A)), sequence (Q9Y3Z3 whole entry T592A): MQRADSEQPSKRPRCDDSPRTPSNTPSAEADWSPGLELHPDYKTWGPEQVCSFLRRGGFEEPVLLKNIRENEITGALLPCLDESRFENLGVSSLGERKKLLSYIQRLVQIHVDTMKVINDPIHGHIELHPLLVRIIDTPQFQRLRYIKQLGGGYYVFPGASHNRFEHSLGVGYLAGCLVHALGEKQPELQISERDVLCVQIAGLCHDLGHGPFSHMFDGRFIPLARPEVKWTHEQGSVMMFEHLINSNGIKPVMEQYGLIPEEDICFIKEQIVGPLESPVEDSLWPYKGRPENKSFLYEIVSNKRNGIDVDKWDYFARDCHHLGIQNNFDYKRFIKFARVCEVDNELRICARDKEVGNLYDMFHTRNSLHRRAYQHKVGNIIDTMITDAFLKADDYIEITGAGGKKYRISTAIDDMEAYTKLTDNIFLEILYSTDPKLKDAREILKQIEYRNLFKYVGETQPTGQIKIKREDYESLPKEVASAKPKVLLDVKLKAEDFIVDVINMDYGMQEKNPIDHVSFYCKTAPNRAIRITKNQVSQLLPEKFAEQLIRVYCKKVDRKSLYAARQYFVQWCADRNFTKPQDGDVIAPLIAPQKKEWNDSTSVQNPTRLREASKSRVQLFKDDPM

LZ2-mlvRT (RR12EE345L(leucine zipper)-mlvRTv(D200N, L603W, T306K, W313F, T330P)-NLS) (enzyme)
editing efficiency (BFP to GFP conversion in HEK293T-BFP cells) [1]: 38%

Npu C intein-nCas9(1173-1368 with S1173C)-mlvRT5M (enzyme)
editing efficiency (% GFP+) [2]: 29%

VPX^RH2-1 (variant of VPX from HIV-2 clinical isolate RH2-1) (from UniProt P20881 1-112)
editing efficiency with RW2I, edit 2 nt from the nick, SAMHD1 (T592A) coexpressed [3]: 64%

Vpx peptide (Hiv2-rod Vpx) (from UniProt P06939 1-112)
editing efficiency relative to that without SAMHD1^p-, edit 65 nt from the nick [3]: 78%
